Experimental findings from publication PMC11253593 are described below.

In general, stoichiometry N refers to the number of molecules, sites or subunits per partner or assembly.

Assay [1] has as its target DdrI (DR0997), CRP family protein from Deinococcus radiodurans, untagged (Deinococcus radiodurans). Put plainly: SEC; gel filtration of the purified protein to check homogeneity and oligomeric state; also run with cAMP and Mn2+ added (dimer formation not affected).
Assay [2] deals with eGFP-DdrI (DdrI with N-terminal fused eGFP) (Deinococcus radiodurans). Described as above.

In assay [1], “DdrI (DR0997), CRP family protein from Deinococcus radiodurans, untagged (natural protein)” registered a stoichiometry N of 2.
Consider “eGFP-DdrI (DdrI with N-terminal fused eGFP) (natural protein)”, for which, in assay [2], the stoichiometry N was found to be 2.
